Source: paper PMC8560915, “Nematode CDC-37 and DNJ-13 form complexes and can interact with HSP-90” (Scientific Reports, 2021)

B1: Labeled CDC-37 (*CDC-37) (natural protein, nematode, UniProt O02108 1-370, looked up)
chain: MPIDYSKWKDIEVSDDEDDTHPNIDTPSLFRWRHQARLERMAEKKMEQEKIDKEKGTTSKKMEELEKKLAAADVTDKSDIQKQIDEVKAQEEAWRKKEAELEEKERLEPWNVDTIGHEAFSTSRINKITEKKPQAPKTDEEDTHAMSTFFETHESLLEKMAVLKNGAKSTELFLAEHPHMASEYTANWLTIEALNAAIDFNEEKMKTMAEQCIIIQYLLELSKSLNAVATNTTVQKQFFKKFEAAEPVYMKHYQDEVKAFEDRLRTRAQTKRDAAMEEAEAEEKAERMKSAPGGIDPQEVFEQLPEEMRKCFEAHDIEALKGVAQKMDEEVFKYHFDRCIASGLWVPGKADDDDDDEEAAPAEEEPTTSS
modifications: ATTO 488 C5-maleimide at its cysteine residues
notes: CDC-37, kinase-specific Hsp90 cofactor of nematodes; same protein as m1, labeled at cysteines; The methods name ATTO 488 C5-maleimide, the results call the label AlexaFluor 488; also called fluorescently labeled CDC-37; AlexaFluor 488-labeled CDC-37
B2: DNJ-13 (natural protein)
chain: not shown
notes: DNJ-13, cytosolic Hsp40-like J domain protein of C. elegans; cDNA in pET28b after the N-terminal His6 tag; called full-length in the results; also called full-length DNJ-13; DNJ-13 dimer; source: E. coli BL21-CodonPlus(DE3)RIL, purified (HisTrap FF, ResourceS ion exchange, Superdex 75 SEC)
B3: CDC-37 (natural protein, nematode, UniProt O02108 1-370, looked up)
chain: B1 chain
notes: CDC-37, kinase-specific Hsp90 cofactor of nematodes; cDNA in pET28b after the N-terminal His6 tag; called full-length in the results; Cleavage of the His6 tag is not mentioned; also called full-length CDC-37; FL; source: E. coli BL21-CodonPlus(DE3)RIL, purified (HisTrap FF, ResourceS ion exchange, Superdex 75 SEC)

What was measured:
[1] = biological target: T1, HSP-90 (nematode, UniProt Q18688 1-702); test: AUC; sedimentation velocity with fluorescence detection; 300 nM *CDC-37 with or without 2 µM binding partners; 42,000 rpm, 20 °C; 40 mM HEPES/KOH pH 7.5, 20 mM KCl, 1 mM DTT, 5 mM MgCl2; with and without ATPγS for HSP-90; conditions: both partners purified
T1 construct: HSP-90 of nematodes, the chaperone for which CDC-37 acts as co-chaperone; the construct is not described

[2] = biological target: B1; test: AUC; fluorescence AUC titration, 100 nM *CDC-37 with 0-10 µM DNJ-13; sedimentation coefficients against DNJ-13 concentration fitted with a Michaelis-Menten function; approximate KD; conditions: both partners purified
[3] = biological target: the molecule itself; test: cross-linking; isotope labeled BS3-H12/D12 and DSSG-H6/D6; 16 µM DNJ-13 and 16 µM CDC-37; bands cut from SDS-PAGE, tryptic digest, nanoLC-ESI-MS/MS; crosslinks identified with xMASS and pLink2.0
[4] = biological target: B2; test: AUC; sedimentation velocity with UV/Vis absorbance, non-labeled proteins, 0.5 mg/ml protein; 10 µM DNJ-13 with substoichiometric, equal or excess CDC-37; 2DSA analysis in UltraScan III; conditions: both partners purified

Sequence of DNJ-13 (Q20774 entry or part of it): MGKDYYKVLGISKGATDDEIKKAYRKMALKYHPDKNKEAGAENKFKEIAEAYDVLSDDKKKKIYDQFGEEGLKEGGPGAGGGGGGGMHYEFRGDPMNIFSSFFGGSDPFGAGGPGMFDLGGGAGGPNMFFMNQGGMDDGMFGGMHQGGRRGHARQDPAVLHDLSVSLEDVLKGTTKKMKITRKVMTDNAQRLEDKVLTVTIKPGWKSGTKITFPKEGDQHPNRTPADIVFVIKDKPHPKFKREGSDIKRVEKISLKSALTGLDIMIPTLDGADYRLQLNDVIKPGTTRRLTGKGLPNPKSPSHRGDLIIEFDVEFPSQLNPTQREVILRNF

B1
binding result [1]: binds

B2
Kd [2]: ~3000 nM | stoichiometry N [3]: 2

B3
stoichiometry N [4]: 1 CDC-37 per DNJ-13 dimer
